Experimental data taken from patent publication US8492329B2, “Bioactive peptides and methods of using same” (Compugen Ltd., priority 2007, dated 2013).

How the values were obtained:
Format in all cases: cell-based
LGR8 (RXFP2) [1] = biological target: T1, LGR8 (RXFP2) (Homo sapiens, UniProt Q8WXD0); assay: cAMP accumulation (Hit Hunter cAMP kit) in CHO-K1 cells transiently transfected with LGR8; set-up: expressed in transfected cells; host or cells: CHO-K1 (transient); conditions: 20 uM Forskolin, FIG. 2
T1 sequence (Q8WXD0 whole entry): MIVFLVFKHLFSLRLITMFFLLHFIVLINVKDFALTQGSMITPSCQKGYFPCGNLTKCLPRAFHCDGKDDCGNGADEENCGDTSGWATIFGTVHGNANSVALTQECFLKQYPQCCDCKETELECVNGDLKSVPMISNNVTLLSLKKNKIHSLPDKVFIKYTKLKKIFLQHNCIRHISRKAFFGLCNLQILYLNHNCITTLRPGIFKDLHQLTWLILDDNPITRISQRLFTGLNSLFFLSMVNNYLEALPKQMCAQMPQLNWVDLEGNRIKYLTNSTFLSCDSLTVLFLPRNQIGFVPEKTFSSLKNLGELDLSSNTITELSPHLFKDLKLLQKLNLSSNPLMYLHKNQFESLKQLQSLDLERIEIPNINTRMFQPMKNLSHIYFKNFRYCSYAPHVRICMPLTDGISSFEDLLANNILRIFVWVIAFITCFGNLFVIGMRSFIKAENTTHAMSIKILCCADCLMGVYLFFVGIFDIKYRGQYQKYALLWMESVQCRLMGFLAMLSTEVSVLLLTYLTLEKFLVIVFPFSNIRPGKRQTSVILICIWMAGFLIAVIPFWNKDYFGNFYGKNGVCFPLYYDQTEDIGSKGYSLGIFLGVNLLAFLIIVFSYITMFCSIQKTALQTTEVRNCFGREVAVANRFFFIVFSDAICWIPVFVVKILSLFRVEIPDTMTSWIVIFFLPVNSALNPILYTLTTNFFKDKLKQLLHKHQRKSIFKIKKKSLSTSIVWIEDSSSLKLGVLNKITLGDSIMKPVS
Method: The ability of Peptides to affect cAMP concentration was examined in CHO-K1 cells transiently transfected with LGR7 (RXFP1) or LGR8 (RXFP2). The experiment measured cAMP concentration in response to the addition of the peptides.
LGR7 (RXFP1) or LGR8 (RXFP2) were transiently transfected into CHO-K1 cells as follows: Cells (12 million) were plated into T75 flasks on the day preceding transfection. Cells were transfected with a GPCR DNA and Gα16 using a lipid technique according to the manufacturer's recommendation. Cells were transfected for 5 hours, then re-plated into 96-well dishes (60,000 cells per well) and grown overnight. Transfected cells were plated into 24 wells of a 96-well plate. Cells were pre-treated with 0.5 mM IBMX (stimulation buffer) for 10 min at 37° C., then stimulated with either a positive control (Relaxin 2) or a candidate peptide (for Gs functional examination), followed by stimulation or a preincubation with 10 μM forskolin (for Gi functional examination). Following a 20 minutes stimulation by incubation with 1 μM of either positive control or the tested peptides, either with or without forskolin, intracellular cAMP was assayed using the Hit Hunter cAMP kit (DiscoveRx Corporation) according to the manufacturer's recommended protocol. Data was converted to nmol of cAMP by running a standard cAMP curve.
Relaxin was used as a positive control. cAMP level was elevated by pre-treatment with forskolin.
The transfected CHO-K1 cells were treated with 10 uM of Forskolin (Applied cell sciences (ACS)) for 10 minutes and then challenged with 1 uM of H2 Relaxin (ACS) (as a positive control), 1 uM of Peptide P59C13V (P59) (SEQ ID NO: 6), and Peptide P74C13V (P74) (SEQ ID NO: 10).
A dose response effect of P59C13V (P59) and P74C13V (P74) on CHO-K1 cells transiently transfected with LGR8 (RXFP2) was further examined (Method as above). CHO-K1 cells transiently transfected with LGR8 (RXFP2) were treated with 20 uM of Forskolin for 10 minutes and then challenged with either INSL3 (as a positive control), P59C13V (SEQ ID NO: 6) or P74C13V (P74) (SEQ ID NO: 10) at increasing concentrations from 1 nM to 10 uM.

LGR8 (RXFP2) [2] = biological target: T1, LGR8 (RXFP2); assay: pCRE-β-gal reporter assay in Forskolin-treated CHO-K1 cells transiently transfected with LGR8; set-up: expressed in transfected cells; host or cells: CHO-K1 (transient); conditions: 5 uM Forskolin, FIG. 8A-B
Method: The ability of P74C13V (P74) (SEQ ID NO: 10) and P59C13V (P59) and P59C13V-Amide (P59-Amide) (SEQ ID NO: 6 and 5 respectively) to activate LGR7 (RXFP1) and LGR8 (RXFP2) was further tested by testing the ability of these peptides to influence cAMP activity induced by 5 μM Forskolin in CHO-K1 cells transiently transfected with LGR7/pCRE-β-gal or LGR8/pCRE-β-gal as compared to H2 relaxin and INSL3 respectively.
LGR8 transfected CHO-K1 cells were treated with 5 uM of Forskolin to stimulate cAMP. The cells were then challenged with increasing doses of INSL3 (as positive control), P74C13V (P74) (SEQ ID NO: 10), P59C13V with (P59-Amide) and without (P59) amide (SEQ ID NO: 5 and 6, respectively) and P59S-Amide (P59-S) (SEQ ID NO: 1). […] The results are presented as a percentage of Forskolin activity at various concentrations of the peptide (logarithmic scale). Each point represents three unrelated repeats for each experiment.

GPR135 (RXFP3) = biological target: T2, GPR135 (RXFP3) (Homo sapiens, UniProt Q9NSD7); assay: cAMP HTRF assay on Euroscreen RXFP3 recombinant cells; conditions: increasing concentrations, 30 min; FIG. 5
T2 construct: host or cells: CHO-K1 recombinant cell line (Euroscreen)
T2 sequence (Q9NSD7 1-469): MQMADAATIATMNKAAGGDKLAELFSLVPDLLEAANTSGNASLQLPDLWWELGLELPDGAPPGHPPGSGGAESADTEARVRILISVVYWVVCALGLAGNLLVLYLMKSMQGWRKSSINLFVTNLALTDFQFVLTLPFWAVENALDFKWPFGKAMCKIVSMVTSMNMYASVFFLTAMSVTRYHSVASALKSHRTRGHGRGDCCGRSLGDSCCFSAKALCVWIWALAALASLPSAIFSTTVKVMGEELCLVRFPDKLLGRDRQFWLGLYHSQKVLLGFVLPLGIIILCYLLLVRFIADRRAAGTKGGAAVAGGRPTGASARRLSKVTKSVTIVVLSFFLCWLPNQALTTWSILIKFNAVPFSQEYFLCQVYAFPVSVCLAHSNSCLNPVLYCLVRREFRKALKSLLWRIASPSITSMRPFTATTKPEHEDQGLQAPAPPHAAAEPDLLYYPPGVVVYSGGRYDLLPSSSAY
Method: The ability of P59C13V (SEQ ID NO: 6) and H3 Relaxin to activate CHO-K1 cells transfected by GPR135 (RXFP3), which is a non-LGR, Relaxin related receptor, was tested. The assay was performed by Euroscreen. For cAMP concentration analysis, Euroscreen cat. ES-656-A-cells (RXFP3, Euroscreen cat. ES-656-A) grown to mid-log phase in culture media without antibiotics were detached with PBS-EDTA, centrifuged and resuspended in assay buffer at a concentration of […]. The test was performed in 96 well plates. For agonist testing, 12 μl of cells (5×10^3 cells/well) were mixed with 12 μl of agonist Either H3-Relaxin or P59C13V (P59) (SEQ ID NO: 6) at increasing concentrations. The plates were then incubated for 30 min at room temperature. After addition of the lysis buffer, cAMP concentrations were estimated, according to the manufacturer specification, with the HTRF kit from Cis-Bio International (cat no 62AM2PEB).
.Relaxin 3 Fit (Eeuroscreen) was used as a positive control. RXFP3 (GPCR135) transfected cells were challenged with increasing concentrations of Relaxin 3 (H3 Relaxin—as a positive control—[…]) or P59C13V (P59) (SEQ ID NO: 6) (1 nM-3 uM).

| change in cAMP, dose response, higher concentrations (LGR8 (RXFP2) [1]; concentrations higher than 100 nM (up to 10 uM)) | change in cAMP, dose response, lower concentrations (LGR8 (RXFP2) [1]; concentrations lower than 100 nM) | cAMP activation (Gs) of RXFP3 (GPR135 (RXFP3)) | Substance | CRE activation pattern relative to Forskolin (LGR8 (RXFP2) [2]) |
| --- | --- | --- | --- | --- |
| sharp decrease (Gi effect) | slight dose dependent increase |  | INSL3: Leydig insulin-like 3 peptide, high affinity ligand of LGR8, positive control (chain 1 AAATNPARYCCLSGCTQQDLLTLCPY; chain 2 PTPEMREKLCGHHFVRALVRVCGGPRWSTEA) [reference compound] | increased activation at higher concentrations |
|  |  | strong cAMP stimulation | H3 Relaxin: Relaxin 3 (Euroscreen), ligand of RXFP3, positive control [reference compound] |  |
